Measured values: publication PMC11604724 (MedComm, 2024)

What was measured:
[1] = biological target: SARS‐CoV‐2 WT spike trimer protein (SARS-CoV-2, UniProt P0DTC2); experiment: BLI; details: both partners purified
[2] = biological target: extracellular domain of SARS‐CoV‐2 (WT) spike (S‐ECD) for cryo-EM (SARS-CoV-2 WT, proline mutation at residue 986 | proline mutation at residue 987, N-linked glycans (Asn17, Asn122, Asn165 and others)); experiment: cryo-EM structure; details: both partners purified

B1: mAb 26434 (antibody, V domains shown)
VH: QVQLQQSGAEVKKPGASVKVSCKASGYTFSRYGISWVRQAPGQGLEWMGWISAYKGNTNYAQKFQGRVTMTTDTSTSTAYMELRSLRSDDTAVYYCARSPPDFLGWFDPWGQGTLVTVSS
VL: LPVLTQPPSVSVSPGQTASITCSGDKLGDKFTCWYQQKPGQSPVQVIYQDTHRPSGIPERFSGSNSGNTATLTISGTQAVDEADYYCQAWDSSTVIFGGGTKLTVL
Kd [1]: 670 nM

B2: mAb 3711 (antibody, V domains shown)
VH: EVQLVESGGGLVKPGRSLRLSCAASGFTFSDYYMSWIRQAPGKGLEWVSYISSSGSTIYYADSVRGRFTISRDNAKNSLYLQMNTLRAEDTAVYYCARGGWELRSLAGGYYGMDVWGQGTTVTVSS
VL: DIVMTQTPFTLSASVGDRVTITCRASQGIRNDLGWYQQKPGKAPKCLIYAASSLLSGVPSRFSGSGSGTEFTLTISSLQPEDFATYYCLQHNSYPWTFGQGTKLEIK
stoichiometry N [2]: 3 Fabs per spike trimer
